Source: article PMC11436793

Biological target: T1, SBP-UNK ZnF1-6 (30-357) (human, UniProt Q9C0B0 30-357)
T1 sequence: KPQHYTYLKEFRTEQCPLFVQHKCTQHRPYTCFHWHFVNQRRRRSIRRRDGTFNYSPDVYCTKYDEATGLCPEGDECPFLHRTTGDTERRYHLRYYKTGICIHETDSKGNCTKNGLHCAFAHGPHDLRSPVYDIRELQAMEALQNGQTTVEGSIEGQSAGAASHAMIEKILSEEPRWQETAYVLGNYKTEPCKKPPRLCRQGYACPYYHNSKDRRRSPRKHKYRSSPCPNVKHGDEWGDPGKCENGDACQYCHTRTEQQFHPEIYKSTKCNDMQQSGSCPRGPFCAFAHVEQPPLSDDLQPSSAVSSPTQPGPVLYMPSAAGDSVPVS
Assay: fluorescence polarization

Work on UACAUCGCAUUAGACAUUUU (ssRNA) [Human GTPB4 FP RNA] yielded a Kd of 263 nM.

UUCAUCGCAUUAGACAUUUU (ssRNA) [Chi58-67 gtpb4 FP RNA] showed a Kd of 305 nM.
